Test results as given in paper PMC2775897.

Target: axonemes (purified from sea urchin sperm flagella) (sea urchin)
Experiment: single-molecule fluorescence microscopy

With “DNA-kinesin monomer K336 333C_10 bp (from UniProt P33176 1-336)” the dwell time was 170 ms.
